Results reported in paper doi:10.1101/2020.01.13.904870 (bioRxiv, 2020).
One block for each molecule: values may come before it.

Assays:
[1] = target: Arabidopsis thaliana Fructosamine-3-kinase homolog (AtFN3K), wild type (Arabidopsis thaliana) (UniProt Q9LEW8); experiment: SEC
[2] = target: AtFN3K C32A/C236A/C196A triple cysteine mutant (Arabidopsis thaliana); experiment: SEC
[3] = target: AtFN3K C32A/C236A/C196A triple cysteine mutant (Arabidopsis thaliana); experiment: AUC
non-reducing SDS-PAGE = target: the molecule itself; experiment: non-reducing SDS-PAGE

stoichiometry N [1]: 2
Molecule: Arabidopsis thaliana Fructosamine-3-kinase homolog (AtFN3K), wild type (from UniProt Q9LEW8 31-326) (enzyme)

stoichiometry N [2]: 2 | stoichiometry N [3]: 2
Molecule: AtFN3K C32A/C236A/C196A triple cysteine mutant (enzyme)

B1: Recombinant His-HsFN3K (human Fructosamine-3-kinase), wild type (enzyme, UniProt Q9H479 1-309, looked up)
chain: MEQLLRAELRTATLRAFGGPGAGCISEGRAYDTDAGPVFVKVNRRTQARQMFEGEVASLEALRSTGLVRVPRPMKVIDLPGGGAAFVMEHLKMKSLSSQASKLGEQMADLHLYNQKLREKLKEEENTVGRRGEGAEPQYVDKFGFHTVTCCGFIPQVNEWQDDWPTFFARHRLQAQLDLIEKDYADREARELWSRLQVKIPDLFCGLEIVPALLHGDLWSGNVAEDDVGPIIYDPASFYGHSEFELAIALMFGGFPRSFFTAYHRKIPKAPGFDQRLLLYQLFNYLNHWNHFGREYRSPSLGTMRRLLK
binding result (non-reducing SDS-PAGE): binds
